Target: hEphA2 (human) (UniProt P29317)
Assay: ELISA

Sequence of hEphA2 (human) (P29317 25-534 limits assumed): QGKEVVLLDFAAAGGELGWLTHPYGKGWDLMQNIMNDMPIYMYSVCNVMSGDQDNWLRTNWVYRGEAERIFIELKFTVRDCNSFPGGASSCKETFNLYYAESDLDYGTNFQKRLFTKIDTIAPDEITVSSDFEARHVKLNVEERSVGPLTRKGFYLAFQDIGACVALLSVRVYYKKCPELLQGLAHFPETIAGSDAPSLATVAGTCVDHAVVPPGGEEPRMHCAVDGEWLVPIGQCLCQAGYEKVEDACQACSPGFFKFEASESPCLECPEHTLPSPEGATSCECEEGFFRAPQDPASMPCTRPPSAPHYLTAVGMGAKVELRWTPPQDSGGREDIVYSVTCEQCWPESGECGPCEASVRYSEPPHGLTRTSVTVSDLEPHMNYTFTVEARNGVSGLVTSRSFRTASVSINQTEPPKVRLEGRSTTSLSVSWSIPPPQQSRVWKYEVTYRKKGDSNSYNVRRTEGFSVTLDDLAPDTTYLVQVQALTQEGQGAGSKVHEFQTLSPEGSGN

ELISA O.D. value: 0.453
B1: 3F2 (antibody, from another filing, V domains shown)
VH: EVQLVESGGGVVRPGGSLRLSCAASGFTVSDYSMNWVRQAPGKGLEWIGFIRNKANAYTTEYSASVKGRFTISRDDSKNTLYLQMNSLKTEDTAVYYCTTYPRYHAMDSWGQGTMVTVSS
VL: AIQLTQSPSSLSASVGDRVTITCRASQSISNNLHWYLQKPGQSPQLLIYYGFQSISGVPSRFSGSGSGTDFTLTISSLQPEDFATYYCQQANSWPLTFGGGTKLEIK
